In paper doi:10.1101/2025.04.14.648764 (bioRxiv, 2025):
Positions count from the first letter of the chain named. Names and notes keep the numbering of the source.

B1: AGT WT (enzyme, human)
chain: MASHKLLVTPPKALLKPLSIPNQLLLGPGPSNLPPRIMAAGGLQMIGSMSKDMYQIMDEIKEGIQYVFQTRNPLTLVISGSGHCALEAALVNVLEPGDSFLVGANGIWGQRAVDIGERIGARVHPMTKDPGGHYTLQEVEEGLAQHKPVLLFLTHGESSTGVLQPLDGFGELCHRYKCLLLVDSVASLGGTPLYMDRQGIDILYSGSQKALNAPPGTSLISFSDKAKKKMYSRKTKPFSFYLDIKWLANFWGCDDQPRMYHHTIPVISLYSLRESLALIAEQGLENSWRQHREAAAYLHGRLQALGLQLFVKDPALRLPTVTTVAVPAGYDWRDIVSYVIDHFDIEIMGGLGPSTGKVLRIGLLGCNATRENVDRVTEALRAALQHCPKKKL
B2: AGT LM-p.G170R p.S81A (enzyme, human)
chain: B1 chain with P11L, S81A, G170R, I340M
B3: AGT LM-p.G170R p.S81D (enzyme, human)
chain: B1 chain with P11L, S81D, G170R, I340M
B4: AGT WT p.S81A (enzyme, human)
chain: B1 chain with S81A
B5: AGT LM-p.G170R (enzyme, human)
chain: B1 chain with P11L, G170R, I340M
B6: AGT LM-p.I244T p.S81A (enzyme, human)
chain: B1 chain with P11L, S81A, I244T, I340M
B7: AGT LM-p.I244T p.S81D (enzyme, human)
chain: B1 chain with P11L, S81D, I244T, I340M
B8: AGT LM p.S81D (enzyme, human)
chain: B1 chain with P11L, S81D, I340M
B9: AGT LM (enzyme, human)
chain: B1 chain with P11L, I340M
B10: AGT LM-p.I244T (enzyme, human)
chain: B1 chain with P11L, I244T, I340M
B11: AGT WT p.S81D (enzyme, human)
chain: B1 chain with S81D
B12: AGT LM p.S81A (enzyme, human)
chain: B1 chain with P11L, S81A, I340M

Target: the molecule itself
Assay: dynamic light scattering

Stoichiometry N, 2:
B1
B2
B3
B4
B5
B6
B7
B8
B9
B10
B11
B12
